From the RNAGym collection of RNA variant scans (doi:10.1073/pnas.2313332121)

B1: TPR t1 (parent)
chain: GACCAAUCUGCCCUCAGAGCUCGAGAACAUCUUCGGAUGCAGAGGAGGCAGGCUUCGGUGGCGCGAUAGCGCCAACGUCCUCAACCUCCAAUGCAUCCCACCACAUGAUGAUGCCUGAAGAGCCUUGGUUUUUUG

Variants of: B1
Test: polymerase ribozyme fitness, log enrichment relative to wild type (log ratio); higher = more active; in vitro selection for triplet polymerase activity
Summary of the method: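 The heterodimeric triplet polymerase ribozyme's subunits were each mutagenized into PCR-built libraries and transcribed. Every library was selected once, in triplicate, by annealing with a biotinylated primer, the partner subunit and triplets, incubating frozen at −7 °C, gel-excising extended constructs, capturing on streptavidin beads and running RT-PCR. Input and output libraries were Illumina-sequenced, with genotypes kept only at ≥10 input reads and ≥1 read per output. Fitness, from inverse-variance-weighted replicate averages, is the base-2 logarithm of genotype enrichment over wild-type enrichment.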

Variant	polymerase ribozyme fitness (log ratio)
G44A A46U C85U C86G	-4.71
G44A A46U G47C A74G	-1.99
G45U A50U A84U G117C	-7.49
A43G U55C C62U U109A G135C	-5.8
G44U A46C	-2.3
G45C C70U A83C	-1.86
G45A C79G G107A	-7.38
G45A C53A C86A U133A	-1.69
G44U G60A	-0.946
A43U C80U C99U G120C	-6.23
G44A G60U C72U A90U	-1.55
A43G G63A A121G U129A	-3.06
G45C A46C A105C	-5.01
G45C G51A G63A U78A C123G	-4.51
G45U C64U G77U C79U C114G	-4.61
G44U G45C U78C	-3.51
G45A C72U G110C	-4.39
G44A C82G	-1.66
G44C C73A C115U	-2.64
G45A C115A	-1.15
G45U C94U C102U	-3.33

Variant	polymerase ribozyme fitness (log ratio)
G45A C80A C115A	-3.93
A43U U129G	-2.71
G44U C102G	-8.01
G45U C72U U87A	-1.19
G45C C114A	-2.66
G44A C49U A50C U78C U133G G135U	-1.75
G44C G63A A121G	0.865
G45A C62A U112G C115G	-3.1
G45U C72A C88A G93A G107U A111C	-5.12
G45C U92A	-3.97
A43U A46G U55G	-1.34
G44A U96G	-2.12
G44A U59A G63A C89G C115A C124A U129A	-5.52
G44A C94U	-0.754
G44U A95G C99U	-4.84
G44C U54A C64U C82U C114G	-4.69
G44U G63C U78A	-0.651
G45A G71U C115G	-2.11
A43G G61A U78C G117U	-4.59
G44U C70U U96A C104A	-4.6
A43U G45A C53U C56G A84U	-2.19

Variant	polymerase ribozyme fitness (log ratio)
A43G G51C C72U U78G C79A U112A	-5.74
G45C A100G G120A U133A	-2.23
G45A G48A C86A C89U	-2.36
G44U A108G	-2.57
G44C U112G G120U G127C	-5.08
G45C G69U C82A G127A	-3.34
G44U U55A	-0.917
G44A G51A G63U U125A	-7.95
A43U G45A C56G G113A	-0.304
A43G G61U C82G	-2.27
G45U A50G	-1.25
G44C U106G C124G G135A	-0.579
G45A G71A G113A C124U	-2.34
G44U C72U U96A U106G G117U A119U	-6.08
G45U C73U G110A G122A G128C	-6.61
G45A A103U	-7.16
G45A U81G	-3.71
G44U C70A	-2.87
G44U U59C G110A G127A U132A	-4.19
A43G C115A G135C	-3.27
G44U G77C A90U	-1.31

Variant	polymerase ribozyme fitness (log ratio)
G45U C64U U81A	-2.88
G45U G51A G52U	-4.66
G44U C53G G61C G93A	-2.01
G45C G69C U133A	-2.27
G45A A50U C124U U125G	-0.0022
G45C C89U	-1.92
G45U G47A U116C	-5.47
G44U C62A	-2.41
G44A C72G C80U C101U	-2.59
G45U A91C	-2.07
G45U C86U U87A C124U U130C	-1.19
G44C C76U U78A	-1.08
G45A C62A	-1.81
G45A C62U	-0.924
G44A U59A G60U C89U A91G C104A C114U	-6.21
G44A G61U	-0.0446
G44A G120C	0.014
G44A G120U	-1.14
G44U A50U	-2.28
A43U G71U U116C G128C	-5.7
